Source: patent publication US20240294635A1 (CHIA TAI TIANQING PHARMACEUTICAL GROUP, published 2024)
Read-outs that look alike come from different tables or passages of the source.

Experiments:
[1] = biological target: T1, CD47 on the red cell surface (Homo sapiens (Human), UniProt Q08722 19-323); test: flow cytometry on fixed red cells, antibody 1 µg/mL
Protocol: (§1) Anticoagulated blood was collected and well mixed with an equal amount of normal saline. The mixture was centrifuged at 2000 rpm/min for 5 min, and the supernatant was removed. […] In the first two washings, the mixture was centrifuged at 2000 rpm/min for 5 min, and in the last washing, the mixture was centrifuged at 2000 rpm/min for 10 min, and the supernatant was removed.

[2] = biological target: T2, human CD47 protein on CHO-K1-CD47 cells (human, UniProt Q08722 19-323); test: cell binding, CHO-K1-CD47 cells, high content imaging
T2 construct: whole, on cells; also called CHO-K1 cells expressing human CD47 protein
Protocol: (§2) A cell binding assay of anti-CD47 antibodies (chimeric or humanized) was performed based on the binding to a CHO-K1 cell line stably expressing CD47. CHO-K1-CD47 cells (CHO-K1 cells expressing human CD47 protein) were added to each well of a 96-well plate (Eppendorf, Cat. No. C030730.119) at 1.2×10⁴ cells per well and incubated with anti-CD47 antibodies (20 μg/mL, 1:4 dilution in PBS) at room temperature for 1-2 h. […] The cells were incubated at room temperature for 30 min. The cells were washed three times with PBS buffer. A nuclear dye Hoechst (Sigma, Cat. No. B2261) was diluted with PBS buffer at a dilution ratio of 1:500 and then added to each well at 100 μL/well for staining for 10 min. The cells were washed 3 times with PBS and analyzed using a high content screening system (manufacturer: PerkinElmer; model: Operetta).

[3] = biological target: T3, human CD47 protein, His Tag (ACRObiosystems, Cat. No. CD7-H5227) (human, UniProt Q08722 19-139); test: ELISA, plate coated with CD47-His
T3 construct: bought reagent; also called CD47-His; hCD47-His Tag; not shown: His tag

[4] = biological target: T1, CD47 on the red cell surface; test: flow cytometry on fixed red cells, antibody 10 µg/mL
Protocol: as §1

[5] = biological target: T4, CD47 on HL60 cells (UniProt Q08722 19-323, limits assumed); test: cell-based or functional assay
[6] = biological target: T3, human CD47 protein, His Tag …; test: Biacore SPR, 25 C, antibody captured on CM5 chip
[7] = biological target: T5, cynomolgus/rhesus macaque CD47 protein, His Tag (ACRObiosystems, Cat. No. CD7-C52H1) (cynomolgus monkey (cynomolgus/rhesus …, UniProt A0A2K5X523 19-141)); test: Biacore SPR, 25 C, antibody captured on CM5 chip
T5 construct: bought reagent; also called Cynomolgus monkey CD47 protein
T5 sequence (A0A2K5X523 entry or part of it limits assumed): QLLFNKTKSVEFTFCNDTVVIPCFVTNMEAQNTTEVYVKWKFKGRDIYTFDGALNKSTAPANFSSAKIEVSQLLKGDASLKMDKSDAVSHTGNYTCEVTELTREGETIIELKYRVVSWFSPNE

[8] = biological target: T1, CD47 on the red cell surface; test: flow cytometry on fixed red cells, antibody 10 µg/mL; remark: listed apart in the source
Protocol: as §1

[9] = biological target: T3, human CD47 protein, His Tag …; test: ELISA, plate coated with CD47-His; remark: listed apart in the source
Protocol: An ELISA binding assay was performed based on human CD47 protein and anti-CD47 chimeric antibodies or anti-CD47 humanized antibodies. […] The wells were aspirated, and non-specific binding sites were blocked by adding 100 L/well of a blocking solution (PBS with 1% (w/v) bovine serum albumin (BSA, Sigma, Cat. No. B2064-100G)) and incubating the plate at 37° C. for 1 h. After the 96-well plate was washed three times with a washing buffer (PBS with 0.01% (w/v) Tween 20 (Sigma, Cat. No. P9416-100ML)), 100 μL/well of 1:4 serial dilutions (from 30 g/mL) of anti-CD47 antibodies (see Table 3 for chimeric antibodies, and see Table 4 for humanized antibodies) in blocking solution were added, and the plate was incubated at room temperature for 2 h. […] After the 96-well plate was washed, 100 μL/well of a substrate solution TMB (TIANGEN, Cat. No. PA107-01) was added, and the 96-well plate was incubated at room temperature for 10 min. 100 μL/well of a stop solution (1 M H₂SO₄) was added to stop the reaction. Colorimetric signals were generated and read at 450 nm using a multifunctional microplate reader (manufacturer: PerkinElmer; model: EnVision). Data were analyzed using GraphPad Prism5, and EC₅₀ was calculated.

[10] = biological target: T1, CD47 on the red cell surface; test: cell-based or functional assay
[11] = biological target: T3, human CD47 protein, His Tag …; test: ELISA, CD47-His coated, competition with Human-SIRPα-mFc
Protocol: The plate was let stand at 2-8° C. overnight. The wells were aspirated to remove the coating buffer and blocked with 100 μL/well of a blocking solution (PBS with 1% (w/v) bovine serum albumin (BSA, Sigma, Cat. No. B2064-100G)) by incubation at 37° C. for 1 h. The 96-well plate was washed with a washing buffer (PBS with 0.01% (w/v) Tween 20 (Sigma, Cat. No. P9416-100ML)). […] After the 96-well plate was washed with PBS washing buffer, anti-CD47 chimeric antibodies or anti-CD47 humanized antibodies (see Table 8 for chimeric antibodies, and see Table 9 for humanized antibodies) were added. 4-fold dilution was performed with PBS buffer from a starting concentration of 20 μg/mL, with 8 gradients obtained. The plate was incubated at room temperature for 1.5 h. […] After the 96-well plate was washed with PBS buffer, 100 μL/well of a substrate solution TMB (TIANGEN, Cat. No. PA107-01) was added, and the plate was incubated at room temperature for color development for 10 min. 100 μL/well of 1 M H₂SO₄ was added to stop the reaction. Colorimetric signals were generated and read at 450 nm using a multifunctional microplate reader (manufacturer: PerkinElmer; model: EnVision). Data were analyzed using GraphPad Prism5, and EC₅₀ was calculated.

[12] = biological target: T4, CD47 on HL60 cells; test: cell-based or functional assay; remark: listed apart in the source
[13] = biological target: T2, human CD47 protein on CHO-K1-CD47 cells; test: cell binding, CHO-K1-CD47 cells, high content imaging; remark: listed apart in the source
Protocol: as §2

[14] = biological target: T3, human CD47 protein, His Tag …; test: Biacore SPR, 25 C, antibody captured on CM5 chip; remark: listed apart in the source
[15] = biological target: T1, CD47 on the red cell surface; test: flow cytometry on fixed red cells, antibody 1 µg/mL; remark: listed apart in the source
Protocol: as §1

[16] = biological target: T5, cynomolgus/rhesus macaque CD47 protein, …; test: Biacore SPR, 25 C, antibody captured on CM5 chip; remark: listed apart in the source

Binder | MFI [1] | EC50 [2] | EC50 [3] | MFI [4] | rate of phagocytosis, antibody 1 µg/mL [5] | rate of phagocytosis, antibody 10 µg/mL [5] | Kd [6] | Kd [7] | MFI [8] | EC50 [9] | red cell agglutination, lowest concentration causing it [10] | IC50 [11] | rate of phagocytosis, antibody 1 µg/mL [12] | rate of phagocytosis, antibody 10 µg/mL [12] | EC50 [13] | Kd [14] | MFI [15] | Kd [16]
Xi2B2 (antibody, human IgG4 S228P, kappa, V domains shown, mouse variable regions on human IgG4 (EU S228P) and human kappa constant regions; also called chimeric 2B2 antibody) VH: EVMLVESGGGLVQPGGSLKLSCAASGFTFSNYYMSWVRQTPEKRLEWVAYISSGGGSTYYPDSVKGRFTISRDNAKNTLYLQMSSLKSEDTAMYYCAWFAYWGQGTLVTVSA VL: not shown | 656 MFI | 30.8 µg/mL | 0.349 µg/mL | 608 MFI | 7.3% | 4.1% | 7.48 nM | 1.2 nM |  |  |  |  |  |  |  |  |  | 
hz3F10-3.1 (antibody, human IgG4 S228P, kappa, V domains shown, humanized 3F10, full-length heavy and light chains) VH: QVQLVQSGAEVKKPGSSVKVSCKASGYTFSRYWIEWVRQAPGQGLEWMGEFIPGSDTTNYAQKFQGRVTITADISTSTAYMELSSLRSEDTAVYYCARGGLRRMDYWGQGTLVTVSS VL: DIQMTQSPSSLSASVGDRVTITCRASSSVSSTYLHWYQQKPGKAPKLLIYTTSTLASGVPSRFSGSGSGTSYTLTISSLQPEDFATYYCQQFSDSTWTFGQGTKLEIKR |  |  |  |  |  |  |  |  | 41400 MFI | 0.127 µg/mL | 3.3 µg/mL | 1.68 µg/mL | 50.6% | 58.7% | 1.12 µg/mL | 1.53 nM | 6700 MFI | 
hz3F10-4.2 (antibody, human IgG4 S228P, kappa, V domains shown, humanized 3F10, full-length heavy and light chains) VH: QVQLVQSGAEVKKPGSSVKVSCKASGYTFSRYWIEWVRQAPGQGLEWMGEFIPGSDTTNYAQKFQGRVTITAEISTNTAYMELSSLRSEDTAVYYCARGGLRRMDYWGQGTLVTVSS VL: DIQMTQSPSSLSASVGDRVTITCRASSSVSSTYLHWYQQKPGKAPKLLIYTTSTLASGVPSRFSGSGSGTSYTLTISSLQPEDFATYYCQQFSESTWTFGQGTKLEIKR |  |  |  |  |  |  |  |  | 45600 MFI | 0.181 µg/mL | 3.3 µg/mL | 1.74 µg/mL | 46.2% | 31.7% | 1.26 µg/mL | 1.34 nM | 4810 MFI | 1.86 nM
hz3F10-3.2 (antibody, human IgG4 S228P, kappa, V domains shown, humanized 3F10, full-length heavy and light chains) VH: QVQLVQSGAEVKKPGSSVKVSCKASGYTFSRYWIEWVRQAPGQGLEWMGEFIPGSDTTNYAQKFQGRVTITAEISTNTAYMELSSLRSEDTAVYYCARGGLRRMDYWGQGTLVTVSS VL: DIQMTQSPSSLSASVGDRVTITCRASSSVSSTYLHWYQQKPGKAPKLLIYTTSTLASGVPSRFSGSGSGTSYTLTISSLQPEDFATYYCQQFSDSTWTFGQGTKLEIKR |  |  |  |  |  |  |  |  | 45300 MFI | 0.166 µg/mL | 3.3 µg/mL | 1.74 µg/mL | 47% | 37.1% | 1.2 µg/mL | 1.15 nM | 5100 MFI | 1.47 nM
hz3F10-4.1 (antibody, human IgG4 S228P, kappa, V domains shown, humanized 3F10, full-length heavy and light chains) VH: QVQLVQSGAEVKKPGSSVKVSCKASGYTFSRYWIEWVRQAPGQGLEWMGEFIPGSDTTNYAQKFQGRVTITADISTSTAYMELSSLRSEDTAVYYCARGGLRRMDYWGQGTLVTVSS VL: DIQMTQSPSSLSASVGDRVTITCRASSSVSSTYLHWYQQKPGKAPKLLIYTTSTLASGVPSRFSGSGSGTSYTLTISSLQPEDFATYYCQQFSESTWTFGQGTKLEIKR |  |  |  |  |  |  |  |  | 41900 MFI | 0.115 µg/mL | 3.3 µg/mL | 1.95 µg/mL | 50.3% | 58.3% | 1.16 µg/mL | 1.42 nM | 5980 MFI | 1.62 nM
hz16E5-1.1 (antibody, human IgG4 S228P, kappa, humanized 16E5, full-length heavy and light chains) heavy: not shown light: DIQMTQSPSSLSASVGDRVTITCRSSQSLVHSNGYTYLHWYQQKPGKAPKLLIYKVSNRFSGVPSRFSGSGSGTDFTLTISSLQPEDFATYYCSQSTHVPPTFGQGTKLEIKRTVAAPSVFIFPPSDEQLKSGTASVVCLLNNFYPREAKVQWKVDNALQSGNSQESVTEQDSKDSTYSLSSTLTLSKADYEKHKVYACEVTHQGLSSPVTKSFNRGEC |  |  |  |  |  |  |  |  | 6460 MFI | 0.306 µg/mL | 3.3 µg/mL |  | 14.8% | 4.02% | 3.87 µg/mL | 18.9 nM | 945 MFI | 4.77 nM
hz16E5-3.3 (antibody, human IgG4 S228P, kappa, humanized 16E5, full-length heavy and light chains) heavy: not shown light: DAQMTQSPSSLSASVGDRVTITCRSSQSLVHSNGYTYLHWYQQKPGKAPKLLIYKVSNRFSGVPSRFSGSGSGTDFTLTISSLQPEDFATYYCSQSTHVPPTFGQGTKLEIKRTVAAPSVFIFPPSDEQLKSGTASVVCLLNNFYPREAKVQWKVDNALQSGNSQESVTEQDSKDSTYSLSSTLTLSKADYEKHKVYACEVTHQGLSSPVTKSFNRGEC |  |  |  |  |  |  |  |  | 3870 MFI | 0.241 µg/mL | 3.3 µg/mL | 2 µg/mL | 11.6% | 4.7% | 40.5 µg/mL | 7.13 nM | 848 MFI | 1.87 nM
hz16E5-3.1 (antibody, human IgG4 S228P, kappa, humanized 16E5, full-length heavy and light chains) heavy: not shown light: DAQMTQSPSSLSASVGDRVTITCRSSQSLVHSNGYTYLHWYQQKPGKAPKLLIYKVSNRFSGVPSRFSGSGSGTDFTLTISSLQPEDFATYYCSQSTHVPPTFGQGTKLEIKRTVAAPSVFIFPPSDEQLKSGTASVVCLLNNFYPREAKVQWKVDNALQSGNSQESVTEQDSKDSTYSLSSTLTLSKADYEKHKVYACEVTHQGLSSPVTKSFNRGEC |  |  |  |  |  |  |  |  | 5140 MFI | 0.14 µg/mL | 3.3 µg/mL | 15.2 µg/mL | 6.37% | 24.2% | 5.88 µg/mL | 6.28 nM | 945 MFI | 3.28 nM
hz16E5-1.3 (antibody, human IgG4 S228P, kappa, humanized 16E5, full-length heavy and light chains) heavy: not shown light: DIQMTQSPSSLSASVGDRVTITCRSSQSLVHSNGYTYLHWYQQKPGKAPKLLIYKVSNRFSGVPSRFSGSGSGTDFTLTISSLQPEDFATYYCSQSTHVPPTFGQGTKLEIKRTVAAPSVFIFPPSDEQLKSGTASVVCLLNNFYPREAKVQWKVDNALQSGNSQESVTEQDSKDSTYSLSSTLTLSKADYEKHKVYACEVTHQGLSSPVTKSFNRGEC |  |  |  |  |  |  |  |  | 4880 MFI | 0.138 µg/mL | 3.3 µg/mL | 2.32 µg/mL | 3.03% | 4.33% | 18.8 µg/mL | 15.3 nM | 894 MFI | 2.73 nM
